{"source": "paper PMC2872656", "biological_target": "Pyrococcus abyssi PAB1135 protein (trypsin-treated) (Pyrococcus abyssi) (UniProt Q9UXX8)", "assay": "SEC; trypsin-treated PAB1135 on Superdex 75 XK 16/60; 50 mM Tris-HCl pH 8.0, 150 mM NaCl, 0.5 mM EDTA; apparent mass against mass markers", "data": [{"substance": "Pyrococcus abyssi PAB1135 protein (trypsin-treated) (from UniProt Q9UXX8 1-154) (natural protein)", "values": [{"measurement": "stoichiometry N", "value": 2}]}]}
